These results are taken from patent publication US7265263B1, “Potato transcription factors, methods of use thereof, and a method for enhancing tuber development” (Iowa State University Research Foundation, Inc., priority 2002, dated 2007).

Assay [1] addresses T1, StBEL-05 protein from pGEM11Z (in vitro transcription/translation) (Solanum tuberosum).
T1 construct: 35S-methionine labelled prey; also called p11Z-5
T1 chain: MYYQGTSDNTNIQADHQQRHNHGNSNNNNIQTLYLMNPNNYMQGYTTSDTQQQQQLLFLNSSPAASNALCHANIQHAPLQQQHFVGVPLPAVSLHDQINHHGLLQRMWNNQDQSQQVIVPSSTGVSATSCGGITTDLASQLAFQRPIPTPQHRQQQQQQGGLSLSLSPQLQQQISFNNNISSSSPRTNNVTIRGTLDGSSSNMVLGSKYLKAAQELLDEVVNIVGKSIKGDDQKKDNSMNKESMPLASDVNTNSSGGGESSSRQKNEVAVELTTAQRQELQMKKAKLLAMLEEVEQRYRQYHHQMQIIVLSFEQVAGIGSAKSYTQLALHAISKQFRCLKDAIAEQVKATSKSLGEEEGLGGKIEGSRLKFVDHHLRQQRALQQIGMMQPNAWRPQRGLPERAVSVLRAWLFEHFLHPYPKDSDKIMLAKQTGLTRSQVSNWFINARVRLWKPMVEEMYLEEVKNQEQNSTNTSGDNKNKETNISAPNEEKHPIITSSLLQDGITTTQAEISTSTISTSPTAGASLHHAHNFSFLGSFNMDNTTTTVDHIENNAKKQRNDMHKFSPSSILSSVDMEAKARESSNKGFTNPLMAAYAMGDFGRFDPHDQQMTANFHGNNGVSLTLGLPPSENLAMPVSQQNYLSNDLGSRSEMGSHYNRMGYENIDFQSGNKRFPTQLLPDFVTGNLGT
In words: in vitro binding protocol (pull-down). As for the experimental part:
(§1) In vitro binding experiments were performed as described by Ni et al., "PIF3, a Phytochrome-Interacting Factor Necessary for Normal Photoinduced Signal Transduction, is a Novel Basic *Helix*-Loop-Helix Protein," *Cell* 95:657-667 (1998), which is hereby incorporated by reference in its entirety. The full-length sequence for POTH1 was cloned into a pET17b/GAD fusion cassette and transcribed under the control of the T7 promoter. The BEL cDNAs were cloned into pGEM11Z vectors and were transcribed under the control of the T7 promoter. ^35S-methionine labeled bait and prey proteins were synthesized using the TnT in vitro transcription-translation kit (Promega) according to the manufacturer's protocols. Each 50 μl TnT reaction contained 2.0 μg of template plasmid DNA and 20 μmol (20 μCi) of labeled ^35S-methionine. The POTH1:GAD/BEL complex was immunoprecipitated with anti-GAD antibodies (Santa Cruz Biotechnology, Calif.). The proteins from the pellet (one-half the fraction) and for the prey (one-fourth of the reaction volume) were resolved on a 10% SDS-PAGE gel and visualized by autoradiography.

Assay [2] has as its target T2, POTH1 in pBridge (full-length POTH1 fused with the GAL4 DNA-binding domain) (Solanum tuberosum).
T2 construct: Bait of the yeast two-hybrid screen and partner of the StBEL-05 deletion constructs; also called pBHD; pBridge:POTH1
As to the kind of experiment: quantitative yeast two-hybrid beta-galactosidase assay. An excerpt:
(§2) The Matchmaker two-hybrid system (Clontech, Calif.) was used for the yeast two-hybrid screen. Yeast transformation and plasmid rescue into DH5-α *E. coli* cells were according to the manufacturer's instructions. Full-length POTH1 was cloned into the pBridge (Clontech, Calif.) vector and used as bait to screen the potato (*S. tuberosum* 'Desireé') stolon cDNA library in pAD-GAL4-2.1 (Stratagene, Calif.). Positive interactions were confirmed by cotransforming yeast strain AH109 with each purified pAD plasmid and pBridge: POTH1 and plating on -leucine/-tryptophan (transformation control) and -leucine/-tryptophan/-histidine/-adenine (selection) nutrient medium. Induction of the AH109 reporter gene, lacZ, was measured with a yeast β-galactosidase assay kit (Pierce Chemicals). β-galactosidase activity (FIG. 9B) was determined from a known density of yeast cells and calculated as 1000 ×OD420/time of color reaction (minutes)×volume of yeast culture (ml)×$OD600$.
The StBEL-05 deletion constructs were amplified by PCR, then cloned into the vector, pGAD, in-frame with the GAL4 activation domain. POTH1 deletion constructs were amplified by PCR, and cloned into pBridge (Clontech) in-frame with the GAL4 binding domain. Sequencing of selected cDNAs and constructs was performed at the Iowa State University DNA Facility. […]

Assay [3] concerns POTH1. In words: In vitro binding assay (immunoprecipitation) with POTH1. As to conditions: in vitro transcription/translation, anti-GAD. On the set-up: species or system Solanum tuberosum. The procedure:
In vitro binding experiments were performed as described by Ni et al., “PIF3, a Phytochrome-Interacting Factor Necessary for Normal Photoinduced Signal Transduction, is a Novel Basic Helix-Loop-Helix Protein,” Cell 95:657-667 (1998), which is hereby incorporated by reference in its entirety. The full-length sequence for POTH1 was cloned into a pET17b/GAD fusion cassette and transcribed under the control of the T7 promoter. […] Each 50 μl TnT reaction contained 2.0 μg of template plasmid DNA and 20 μmol (20 μCi) of labeled ^35S-methionine. The POTH1:GAD/BEL complex was immunoprecipitated with anti-GAD antibodies (Santa Cruz Biotechnology, Calif.). The proteins from the pellet (one-half the fraction) and for the prey (one-fourth of the reaction volume) were resolved on a 10% SDS-PAGE gel and visualized by autoradiography.

In assay [4] the target is T3, GAD:POTH1 fusion protein (Solanum tuberosum).
T3 construct: 35S-methionine labelled, made by in vitro transcription/translation for the immunoprecipitation; also called POTH1:GAD
T3 chain: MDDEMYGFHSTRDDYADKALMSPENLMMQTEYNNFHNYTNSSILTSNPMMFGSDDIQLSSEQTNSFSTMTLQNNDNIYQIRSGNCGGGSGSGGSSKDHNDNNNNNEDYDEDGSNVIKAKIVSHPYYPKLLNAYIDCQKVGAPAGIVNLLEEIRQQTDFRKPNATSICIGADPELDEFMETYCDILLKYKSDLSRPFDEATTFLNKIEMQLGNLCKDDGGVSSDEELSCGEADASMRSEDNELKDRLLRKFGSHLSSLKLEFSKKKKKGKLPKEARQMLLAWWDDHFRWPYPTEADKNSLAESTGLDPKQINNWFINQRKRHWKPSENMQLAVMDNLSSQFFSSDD
In words: in vitro transcription/translation, immunoprecipitation assay. The procedure:
as §1

In assay [5] the target is T4, GAD protein alone (UniProt P04386 768-881, limits assumed).
T4 construct: Control of the immunoprecipitation
T4 sequence (looked up): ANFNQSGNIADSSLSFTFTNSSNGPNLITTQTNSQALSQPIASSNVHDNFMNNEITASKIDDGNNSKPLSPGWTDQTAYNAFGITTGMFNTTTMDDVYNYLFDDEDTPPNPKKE
In words: in vitro translated 35S-labelled proteins, immunoprecipitation with anti-GAD antibodies. As for the experimental part: as §1

For assay [6], the system named is POTH1. As to the kind of experiment: Yeast two-hybrid interaction with POTH1. Format: binding, Solanum tuberosum. Particulars: nutritional selection and lacZ activation, yeast AH109.
Text: as §2, with “E. coli” for “*E. coli*”, “(S. tuberosum ‘Desireé’)” for “(*S. tuberosum* 'Desireé')”, “1000×OD420/time” for “1000 ×OD420/time”, “(ml)×OD600.” for “(ml)×$OD600$.”
The StBEL-05 deletion constructs were amplified by PCR, then cloned into the vector, pGAD, in-frame with the GAL4 activation domain. POTH1 deletion constructs were amplified by PCR, and cloned into pBridge (Clontech) in-frame with the GAL4 binding domain. Sequencing of selected cDNAs and constructs was performed at the Iowa State University DNA Facility. For deletion analysis, modified constructs of POTH1 were cloned into the pBridge vector for fusion with the DNA-binding domain of GAL4 (FIG. 10A). For StBEL-05, constructs were cloned into the pGAD vector for fusion with the activating domain of GAL4 (FIG. 10B). Deletion constructs were made from both the amino and carboxy termini. These mutants were then tested for interaction in the yeast two-hybrid system by cotransforming into yeast strain AH109 with the corresponding full-length partner (StBEL-05 in pGAL4 or POTH1 in pBridge). All constructs were sequenced to verify that they were in-frame. Positive interactions were verified for lacZ induction by using a β-galactosidase assay (Pierce Chemical Company). For POTH1, seven deletion constructs were tested (FIG. 10A). For the BEL TFs, a fusion construct of StBEL-05 (653 aa of StBEL-05 sequence) and nine deletion constructs were tested (FIG. 10B).

The target in assay [7] is T3, GAD:POTH1 fusion protein. As to the kind of experiment: in vitro translated 35S-labelled proteins, co-immunoprecipitation with anti-GAD antibodies, SDS-PAGE autoradiography. The procedure: as §1

B1: pBHD9 construct as used in the in vitro binding protocol (other)
chain: MDDEMYGFHSTRDDYADKALMSPENLMMQTEYNNFHNYTNSSILTSNPMMFGSDDIQLSSEQTNSFSTMTLQNNDNIYQIRSGNCGGGSGSGGSSKDHNDNNNNNEDYDEDGSN
Regarding B1, the binding result in assay [1] is given as “no binding”.

B2: pAD5-1 (StBEL-05 deletion construct in pGAD) (other, not shown: small tags and cut ends)
chain: KNEVAVELTTAQRQELQMKKAKLLAMLEEVEQRYRQYHHQMQIIVLSFEQVAGIGSAKSYTQLALHAISKQFRCLKDAIAEQVKATSKSLGEEEGLGGKIEGSRLKFVDHHLRQQRALQQIGMMQPNAWRPQRGLPERAVSVLRAWLFEHFLHPYPKDSDKIMLAKQTGLTRSQVSNWFINARVRLWKPMVEEMYLEEVKNQEQNSTNTSGDNKNKETNISAPNEEKHPIITSSLLQDGITTTQAEISTSTISTSPTAGASLHHAHNFSFLGSFNMDNTTTTVDHIENNAKKQRNDMHKFSPSSILSSVDMEAKARESSNKGFTNPLMAAYAMGDFGRFDPHDQQMTANFHGNNGVSLTLGLPPSENLAMPVSQQNYLSNDLGSRSEMGSHYNRMGYENIDFQSGNKRFPTQLLPDFVTGNLGT
notes: Lacks the SKY box; residues converted from pAD-05 numbering
Regarding B2, the “decrease in the induction of the lacZ marker (beta-galactosidase activity) relative to the full-length construct, StBEL-05” value in assay [2] amounted to 55%.

B3: StBEL-13 protein from pGEM11Z (in vitro transcription/translation) (other)
chain: MVMGGGASSQQLGYAKNHTPNVAESMQLFLMNPQPRSPSPSPPNSTSSTLHMLLPNPSSTSTLQGFPNPAEGSFGQFITWGNGGASAATATHHLNAQNEIGGVNVVESQGLSLSLSSSLQHKAEELQMSGEAGGMMFFNQGGSSTSGQYRYKNLNMGGSGVSPNIHQVHVGYGSSLGVVNVLRNSKYAKAAQELLEEFCSVGRGKLKKTNNKAAANNPNTNPSGANNEASSKDVPTLSAADRIEHQRRKVKLLSMVDEVDRRYNHYCEQMQMVVNSFDLVMGFGTAVPYTALAQKAMSRHFRCLKDAIGAQLKQSCELLGEKDAGNSGLTKGETPRLKMLEQSLRQQRAFHQMGMMEQEAWRPQRGLPERSVNILRAWLFEHFLHPYPSDADKHLLARQTGLSRNQVSNWFINARVRLWKPMVEDMYQQEAKDEDGDGDEKSQSQNSGNNIIAQTPTPNSLTNTSSTNMTTTTAPTTTTALAAAETGTAATPITVTSSKRSQINATDSDPSLVAINSFSENQATFPTNIHDPDDCRRGNLSGDDGTTTHDHMGSTMIRFGTTAGDVSLTLGLRHAGNLPENTHFFG
notes: 35S-methionine labelled prey; also called p11Z-13
As for B3, the “pull-down by POTH1 in immunoprecipitation” value in assay [3] was “pulled down”. The figures for the binding result in assay [4] and in assay [5] were “binds” and “no binding”, respectively. Further, the “interaction with POTH1” value in assay [6] is “showed selective interaction”.

B4: StBEL-30 protein from pGEM11Z (in vitro transcription/translation) (other)
chain: MATYFPSPNNQRDADQTFQYFRQSLPESYSEASNAPENMMVFMNYSSSGAYSDMLTGTSQQQHNCIDIPSIGATPFNTSQQEILSNLGGSQMGIQDFSSWRDSRNEMLADNVFQVAQNVQGQGLSLSLGSNIPSGIGISHVQSQNPNQGGGFNMSFGDGDNSQPKEQRNADYFPPDNPGRDLDAMKGYNSPYGTSSIARTIPSSKYLKAAQYLLDEVVSVRKAIKEQNSKKELTKDSRESDVDSKNISSDTPANGGSNPHESKNNQSELSPTEKQEVQNKLAKLLSMLDEIDRRYRQYYHQMQIVVSSFDVVAGEGAAKPYTALALQTISRHFRCLRDAICDQIRASRRSLGEQDASENSKAIGISRLRFVDHHIRQQRALQQLGMMQQHAWRPQRGLPESSVSVLRAWLFEHFLHPYPKDSDKIMLARQTGLTRSQVSNWFINARVRLWKPMVEEMYKEEAGDAKIDSNSSSDVAPRLATKDSKVEERGELHQNAASEFEQYNSGQILESKSNHEADVEMEGASNAETQSQSGMENQTGEPLPAMDNCTLFQDAFVQSNDRFSEFGSFGSGNVLPNGVSLTLGLQQGEGSNLPMSIETHVSYVPLRADDMYSTAPTTMVPETAEFNCLDSGNRQQPFWLLPSAT
notes: 35S-methionine labelled prey; also called p11Z-30
Regarding B4, the “pull-down by POTH1 in immunoprecipitation” value in assay [3] is listed as “pulled down”. Also, the binding result is recorded as “binds” in assay [7] and “no binding” in assay [5]. Further, the “interaction with POTH1” value in assay [6] is listed as “showed selective interaction”.
